Target: KhpB from Thermus thermophilus (Thermus thermophilus HB8)
Assay: SEC

stoichiometry N: 2
Substance: KhpB from Thermus thermophilus (natural protein)
